The text below walks through data of patent US5534428.

This series relates to SstI restriction endonuclease (Streptomyces stanford ATCC 29415). Nature of the series: cleavage_in_vitro. To be noted: pSst105 crude extract; REact 2 buffer, 37 C, 1 h; assay substrate Ad-2 DNA per Example 1.7.

As to Adenovirus-2 DNA, the activity (units per g cells) is > 400000.
